# What was measured:
# HLA-C*07:02 = assay: IEDB peptide-MHC binding, purified MHC/direct/fluorescence; filed as Kd, often an IC50 or EC50 that approximates it; ≥ and ≤ were set here for values at or beyond the usual limits of such assays
# HLA-A*23:01 = assay: as above; details: source organism: Zaire ebolavirus
# HLA-A*02:16 = assay: as above; details: source organism: Zaire ebolavirus
# HLA-A*29:02 = assay: as above; details: source organism: Zaire ebolavirus
# HLA-A*02:12 = assay: as above; details: source organism: Zaire ebolavirus
# HLA-A*02:03 = assay: as above; details: source organism: Zaire ebolavirus
# HLA-A*03:01 [1] = assay: as above; details: source organism: Zaire ebolavirus
# HLA-A*02:11 = assay: as above; details: source organism: Zaire ebolavirus
# HLA-A*02:19 [2] = assay: as above; details: source organism: Zaire ebolavirus
# HLA-A*24:03 = assay: as above; details: source organism: Zaire ebolavirus
# HLA-B*40:01 = assay: as above; details: source organism: Sudan ebolavirus - Maleo (1979)
# HLA-A*68:02 = assay: as above; details: source organism: Zaire ebolavirus
# HLA-B*51:01 [3] = assay: IEDB peptide-MHC binding, purified MHC/competitive/fluorescence; filed as Kd, often an IC50 or EC50 that approximates it; ≥ and ≤ were set here for values at or beyond the usual limits of such assays; details: source organism: Zaire ebolavirus
# HLA-A*69:01 = assay: as above; details: source organism: Zaire ebolavirus
# HLA-B*39:01 = assay: as above
# HLA-B*57:01 [4] = assay: as above; details: source organism: Zaire ebolavirus
# HLA-B*15:01 = assay: as above; details: source organism: Zaire ebolavirus
# HLA-B*15:17 [5] = assay: as above; details: source organism: Zaire ebolavirus
# HLA-A*02:01 [6] = assay: as above
# HLA-A*26:01 = assay: as above; details: source organism: Zaire ebolavirus
# HLA-B*46:01 = assay: as above; details: source organism: Zaire ebolavirus
# HLA-B*27:03 = assay: as above; details: source organism: Zaire ebolavirus
# HLA-B*08:01 = assay: IEDB peptide-MHC binding, purified MHC/competitive/fluorescence; ≥ and ≤ were set here for values at or beyond the usual limits of such assays
# HLA-A*01:01 = assay: as above
# HLA-A*24:02 = assay: as above
# HLA-A*02:01 [7] = assay: as above; details: source organism: Vaccinia virus Copenhagen
# HLA-A*11:01 [8] = assay: as above; details: source organism: Sudan ebolavirus
# HLA-B*07:02 [9] = assay: as above
# HLA-C*12:03 = assay: IEDB peptide-MHC binding, purified MHC/direct/fluorescence; filed as Kd, often an IC50 or EC50 that approximates it; ≥ and ≤ were set here for values at or beyond the usual limits of such assays
# HLA-A*11:01 [10] = assay: IEDB peptide-MHC binding, purified MHC/competitive/radioactivity; filed as Kd, often an IC50 or EC50 that approximates it; ≥ and ≤ were set here for values at or beyond the usual limits of such assays; details: source organism: Vaccinia virus WR
# HLA-B*51:01 [11] = assay: as above; details: source organism: Vaccinia virus WR
# HLA-B*54:01 = assay: as above; details: source organism: Vaccinia virus WR
# HLA-A*33:01 = assay: as above; details: source organism: Vaccinia virus WR
# HLA-A*68:01 = assay: as above; details: source organism: Vaccinia virus WR
# HLA-B*07:02 [12] = assay: as above; details: source organism: Vaccinia virus WR
# HLA-A*03:01 [13] = assay: as above; details: source organism: Vaccinia virus WR
# HLA-A*31:01 = assay: as above; details: source organism: Vaccinia virus WR
# HLA-B*53:01 = assay: as above; details: source organism: Vaccinia virus WR
# HLA-B*35:01 = assay: as above; details: source organism: Vaccinia virus WR
# HLA-A*02:19 [14] = assay: IEDB peptide-MHC binding, purified MHC/competitive/fluorescence; filed as Kd, often an IC50 or EC50 that approximates it; ≥ and ≤ were set here for values at or beyond the usual limits of such assays; details: source organism: Toxoplasma gondii RH
# HLA-C*15:02 = assay: IEDB peptide-MHC binding, purified MHC/direct/fluorescence; filed as Kd, often an IC50 or EC50 that approximates it; ≥ and ≤ were set here for values at or beyond the usual limits of such assays
# HLA-B*58:01 = assay: as above
# HLA-B*57:01 [15] = assay: as above; details: source organism: Salmonella enterica
# HLA-B*15:17 [16] = assay: as above; details: source organism: Salmonella enterica subsp. enterica serovar Typhimurium
# [17] = source organism: Zaire ebolavirus
# [18] = source organism: Vaccinia virus Copenhagen
# [19] = source organism: Bacillus anthracis str. A2012
# [20] = source organism: Bacillus anthracis str. A0488
# [21] = source organism: Sudan ebolavirus
# [22] = source organism: Vaccinia virus L-IPV
sequence,measurement,setting,value
ALPPRAFEL,Kd,HLA-C*07:02; source organism: Mycobacterium tuberculosis F11,85 nM
DETFVHSGF,Kd,HLA-A*23:01,≥ 20 µM
same,Kd,HLA-A*02:16,≥ 20 µM
same,Kd,HLA-A*29:02,≥ 20 µM
same,Kd,HLA-A*02:12,≥ 20 µM
same,Kd,HLA-A*02:03,≥ 20 µM
same,Kd,HLA-A*03:01 [1],≥ 20 µM
same,Kd,HLA-A*02:11,≥ 20 µM
same,Kd,HLA-A*02:19 [2],≥ 20 µM
same,Kd,HLA-A*24:03,≥ 20 µM
same,Kd,HLA-B*40:01,≥ 20 µM
same,Kd,HLA-A*68:02,≥ 20 µM
same,Kd,HLA-B*51:01 [3],≥ 20 µM
same,Kd,HLA-A*69:01,≥ 20 µM
same,Kd,HLA-B*39:01; [17],≥ 20000 nM
same,Kd,HLA-B*57:01 [4],≥ 20 µM
same,Kd,HLA-B*15:01,≥ 20 µM
same,Kd,HLA-B*15:17 [5],≥ 20 µM
same,Kd,HLA-A*02:01 [6]; [17],≥ 20000 nM
same,Kd,HLA-A*26:01,≥ 20 µM
same,Kd,HLA-B*46:01,≥ 20 µM
same,Kd,HLA-B*27:03,≥ 20 µM
DSRPQKIWM,IC50,HLA-B*08:01; [17],≥ 95.4 µM
ESDMDYHKI,IC50,HLA-A*01:01; [17],≥ 118 µM
same,IC50,HLA-A*24:02; [17],≥ 111 µM
FALKKLIID,IC50,HLA-B*08:01; [18],≥ 211 µM
same,IC50,HLA-A*02:01 [7],≥ 161 µM
FEEMYRHIL,IC50,HLA-B*08:01; [17],≥ 81.4 µM
same,IC50,HLA-A*24:02; [17],25.8 µM
FLIYFRSPL,Kd,HLA-C*07:02; [19],1440 nM
same,Kd,HLA-A*02:01 [6]; [19],10.6 nM
FRMTENVPL,Kd,HLA-C*07:02; [20],48 nM
same,Kd,HLA-B*39:01; [20],1.7 nM
GTGPCPGDY,IC50,HLA-A*11:01 [8],≥ 114 µM
same,IC50,HLA-A*01:01; [21],10.8 µM
NFHQKKNEI,IC50,HLA-B*08:01; [17],66.1 µM
same,IC50,HLA-A*24:02; [17],8.08 µM
QPEWFRNIL,IC50,HLA-B*07:02 [9]; source organism: Influenza A virus (A/Oklahoma/309/2006(H3N2)),0.188 µM
RLYDYFTRV,Kd,HLA-C*12:03; [22],932 nM
same,Kd,HLA-A*11:01 [10],155 nM
same,Kd,HLA-B*51:01 [11],≥ 77.5 µM
same,Kd,HLA-B*54:01,≥ 60.7 µM
same,Kd,HLA-A*33:01,≥ 77.7 µM
same,Kd,HLA-A*68:01,≥ 77.7 µM
same,Kd,HLA-B*07:02 [12],16.8 µM
same,Kd,HLA-A*03:01 [13],≥ 59.3 µM
same,Kd,HLA-A*31:01,411 nM
same,Kd,HLA-B*53:01,≥ 78.2 µM
same,Kd,HLA-B*35:01,≥ 31.5 µM
same,Kd,HLA-A*02:01 [6]; [22],3.9 nM
RSDGYFLKI,IC50,HLA-A*01:01; [18],3.4 µM
same,IC50,HLA-A*24:02; [18],16.4 µM
same,IC50,HLA-A*02:01 [7],4.94 µM
SIFERIREA,Kd,HLA-A*02:01 [6]; source organism: Toxoplasma gondii RH,2 nM
same,Kd,HLA-A*02:19 [14],1150 nM
SLSKRERQL,IC50,HLA-B*08:01; [18],≥ 76.3 µM
same,IC50,HLA-B*07:02 [9]; [18],57.5 µM
SPRMLTPIN,IC50,HLA-B*07:02 [9]; [17],5.08 µM
TENTSSYYA,IC50,HLA-A*01:01; [21],≥ 142 µM
TINDLKMML,Kd,HLA-C*15:02; [18],0.043 µM
TTHHTIPLL,Kd,HLA-B*58:01; source organism: Salmonella enterica subsp. enterica serovar Typhimurium,3240 nM
same,Kd,HLA-C*15:02; source organism: Salmonella enterica subsp. enterica serovar Typhi str. CT18,≥ 20 µM
same,Kd,HLA-B*57:01 [15],4 µM
same,Kd,HLA-B*15:17 [16],65.9 nM
VAANIVLTV,Kd,HLA-C*12:03; source organism: Callithrix jacchus,≤ 1 nM
same,Kd,HLA-A*02:01 [6]; source organism: Homo sapiens,14.5 nM
VSARIAALF,Kd,HLA-B*58:01; source organism: Mycobacterium tuberculosis,36 nM
same,Kd,HLA-C*15:02; source organism: Mycobacterium tuberculosis H37Rv,3.14 µM
YPTAWQSVG,IC50,HLA-B*07:02 [9]; [17],≥ 174 µM
same,IC50,HLA-A*24:02; [17],≥ 209 µM
YRSMIAFKL,Kd,HLA-C*07:02; source organism: Entamoeba histolytica HM-1:IMSS,45 nM
YTEGLMHNQ,IC50,HLA-A*01:01; [21],≥ 135 µM
